Data on one substance can be found in paper PMC6010203.

For the assay, the target named is DS_ConC_SOSIP trimer (ConC_SOSIP with the disulfide 201C-433C) (HIV-1 (clade C consensus)). Briefly: negative-stain electron microscopy.

For orientation: stoichiometry N means the number of molecules, sites or subunits per partner or assembly. The substance “DS_ConC_SOSIP trimer (ConC_SOSIP with the disulfide 201C-433C) (complex)” came in with a stoichiometry N of 3.
